Laboratory results reported in patent US20090169473A1, “DIAGNOSTIC AGENT AND THERAPEUTIC AGENT FOR DISEASE ASSOCIATED WITH HEPATOCYTE GROWTH FACTOR RECEPTOR” (FUJIFILM RI PHARMA CO., LTD., priority 2005, published 2009).
Values belong to the molecule of their own block, whether it stands above or below them.

Key:
[1] = system: HGF receptor expression site (infarct border zone); assay: Dual nuclide autoradiography in myocardial ischemia model rats; assay type: in vivo, CD(SD) IGS rats; details: 60 MBq femoral vein
Procedure: CD(SD) IGS rats (10-week-old) were anesthetized by intraperitoneally administering pentobarbital Na (35 mg/kg). After tracheostomy, an artificial respirator was attached to the rat. The left chest was opened, and an electrocardiogram was measured before coronary ligation. The coronary artery and its peripheral tissue (surrounding several millimeters) were ligated with suture, and ischemic state was determined on the basis of ST rise and recorded by an electrocardiogram. After recording, the chest was closed, and the trachea and the skin were sutured.
Three days after production of the myocardial ischemia model, a blood flow imaging agent ^99mTc-MIBI (Cardiolight Injection; DAIICHI RADIOISOTOPE LABS., LTD.) and [^125I]HGF(11-83)-NH2 (73 aa) were administered to each model rat. Blood flow was assessed through dual nuclide autoradiography and HE staining. ^99mTc-MIBI was administered at 60 MBq through a femoral vein. […] On the day of the experiment, the sample was affixed to an imaging plate for 30 minutes, and a ^99mTc-MIBI accumulation image was recorded by means of a bio-imaging analyzer BAS-1800 (FIG. 9). After 7-days attenuation period for ^99mTc for seven days, the sample was set again to the imaging plate for seven days, and a [^125I]HGF(11-83)-NH2 (73 aa) accumulation image was recorded by means of a bio-imaging analyzer BAS-1800 (FIG. 10).

[2] = system: HGF receptor expression site (infarct border zone); assay: Pinhole-SPECT imaging in myocardial ischemia model rats; assay type: in vivo, Wistar rats; details: 90 MBq left femoral vein
Procedure: Wistar rats (8-week-old) were anesthetized with isoflurane (Forane (R), Abbott). After tracheostomy, an artificial respirator connected to an anesthetizer was attached to each rat. The left chest was opened, and an electrogardiogram was measured before coronary ligation. The coronary artery and its peripheral tissue were ligated with suture. During ligation, nylon filament was placed as a spacer between the coronary artery and the suture in order to weaken the ligation strength so as not to completely intercept the blood flow. Ischemic state was determined on the basis of ST rise and recorded by an electrocardiogram. After recording, the left chest was closed, and the trachea and the skin were sutured.
Under inhalation anesthesia with isoflurane, ^99mTc-MIBI (90 MBq) was injected into the left femoral vein of each myocardial ischemia model rat. Subsequently, [^123I]HGF(11-83)-NH2 (73 aa) (100 MBq) prepared in a manner similar to that of Example 2 was administered through the right femoral vein. Thirty minutes after the administration, pinhole-SPECT imaging was conducted using a gamma camera (PRISM 2000, Shimadzu Corporation) (Imaging conditions: pinhole collimator, matrix sizes: 256×256, Mag 1.0, energy windows ^99mTc: 140 keV 10% and ^123I: 159 keV 10%, 3° 60 sec/step). […]

[3] = Heparin-binding activity by heparin affinity column HPLC; details: for NaCl concentration at elution from heparin column: TSK-gel Heparin-5PW, linear gradient 0 to 2M NaCl, pH 7.5, room temperature
Procedure: The heparin-binding activity of [^125I]HGF(11-83)-NH2 (73 aa) produced in Example 1 was determined with high-performance liquid chromatography employing a heparin column. hrHGF (PEPTIDE INSTITUTE, INC.), having a high heparin-binding activity, was used as a positive control.
<High-Performance Liquid Chromatography Conditions>
Column: TSK-gel Heparin-5PW (0.75×7.5 cm): product of TOHSO
solution A: 10 mM Na phosphate buffer (pH 7.5);
solution B: 10 mM Na phosphate buffer (pH 7.5)+2M NaCl;
0 min to 3 min: solution A 100%
3 min to 30 min: linear gradient solution B 0% to 100%
Temperature: room temperature (about 25° C.)

[4] = target: T1, HGF receptor of HuCCT1 cells (Homo sapiens, UniProt P08581); assay: Binding assay on HuCCT-1 cells with inhibition by hrHGF
T1 construct: c-Met-expressing HuCCT-1 cells (human-origin cholangiocarcinoma cells); endogenous in cells; host or cells: HuCCT-1 (human cholangiocarcinoma cells)
T1 sequence (P08581 25-307 limits assumed): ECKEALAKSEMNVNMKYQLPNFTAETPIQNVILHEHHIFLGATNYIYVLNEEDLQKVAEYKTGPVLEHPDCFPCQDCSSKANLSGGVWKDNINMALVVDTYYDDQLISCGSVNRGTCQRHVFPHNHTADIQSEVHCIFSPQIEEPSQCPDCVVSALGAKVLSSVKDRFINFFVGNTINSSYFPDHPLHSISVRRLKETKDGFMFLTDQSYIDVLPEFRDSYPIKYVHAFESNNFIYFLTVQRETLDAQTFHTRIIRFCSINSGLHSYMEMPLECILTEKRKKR
T1 sequence (P08581 308-1390 limits assumed): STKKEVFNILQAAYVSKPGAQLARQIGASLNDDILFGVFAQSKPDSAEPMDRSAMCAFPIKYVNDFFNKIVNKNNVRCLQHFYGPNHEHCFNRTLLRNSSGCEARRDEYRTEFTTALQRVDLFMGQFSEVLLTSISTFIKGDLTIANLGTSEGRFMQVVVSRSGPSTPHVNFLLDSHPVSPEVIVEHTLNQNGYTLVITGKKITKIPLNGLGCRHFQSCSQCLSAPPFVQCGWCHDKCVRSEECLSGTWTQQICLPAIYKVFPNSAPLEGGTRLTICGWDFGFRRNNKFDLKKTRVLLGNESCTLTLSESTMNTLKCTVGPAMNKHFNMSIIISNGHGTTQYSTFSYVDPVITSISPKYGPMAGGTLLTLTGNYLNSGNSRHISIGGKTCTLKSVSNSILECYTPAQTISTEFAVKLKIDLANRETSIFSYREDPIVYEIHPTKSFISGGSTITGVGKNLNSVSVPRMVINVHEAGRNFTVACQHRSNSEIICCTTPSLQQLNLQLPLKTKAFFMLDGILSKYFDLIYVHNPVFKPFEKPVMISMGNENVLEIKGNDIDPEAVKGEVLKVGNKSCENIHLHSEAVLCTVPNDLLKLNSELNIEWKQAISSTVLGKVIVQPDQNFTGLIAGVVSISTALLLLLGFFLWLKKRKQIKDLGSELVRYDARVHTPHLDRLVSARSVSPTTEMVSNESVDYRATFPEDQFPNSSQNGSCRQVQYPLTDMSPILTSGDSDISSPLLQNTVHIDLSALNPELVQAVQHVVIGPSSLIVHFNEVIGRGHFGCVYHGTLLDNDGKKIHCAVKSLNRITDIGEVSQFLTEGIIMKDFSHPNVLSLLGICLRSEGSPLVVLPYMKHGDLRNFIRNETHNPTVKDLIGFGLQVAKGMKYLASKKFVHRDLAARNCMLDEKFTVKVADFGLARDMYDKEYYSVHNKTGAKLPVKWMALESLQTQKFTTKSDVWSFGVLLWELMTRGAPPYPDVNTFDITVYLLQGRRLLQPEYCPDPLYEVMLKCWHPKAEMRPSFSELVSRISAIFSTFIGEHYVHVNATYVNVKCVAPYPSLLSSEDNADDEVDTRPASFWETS
Procedure: Inhibition of binding of [^125I]HGF(11-83)-NH2 (73 aa) to c-Met-expressing HuCCT-1 cells (human-origin cholangiocarcinoma cells) by human recombinant HGF (hrHGF) was determined by the binding assay.
Specifically, a suspension of HuCCT-1 cells (100 μL, (1.5×10^5 cells)) prepared for a binding inhibition test was placed in an Eppendorf tube whose inner surface had been coated with bovine serum albumin (BSA), and a solution of hrHGF (PEPTIDE INSTITUTE, INC.) (50 μL, final concentration: 379 nM) was added to the tube. A negative control was prepared by adding a binding buffer (0.2% BSA, 20 mM HEPES Hanks' solution, pH 7.0) (50 μL) instead of the rhHGF solution. To the samples, 0.758 nM [^125I]HGF(11-83)-NH2 (73 aa) solution (50 μL) (final concentration: 0.190 nM, ratio by amount to hrHGF: 1:2,000) was added. Each Eppendorf tube containing HuCCT-1 cells was stirred and incubated at room temperature for one hour, followed by centrifuged at 4° C. (3,000 rpm, 3 min) to precipitate the cells. The supernatant was removed by means of an aspirator. The cells were stirred with an ice-cooled binding buffer (500 μL), and the mixture was centrifuged (3,000 rpm, 3 min). The procedure was repeated thrice. The radioactivity of the Eppendorf tube containing HuCCT-1 cells was measured by means of a gamma counter. The average and the standard deviation of the radioactivity (cpm) were calculated for the samples to which the hrHGF solution had been added (hrHGF(+)) and for the samples to which the binding buffer had been added (hrHGF(−)). The difference between the averages was assessed through the Student's t-test.

[5] = system: c-Met-expressed McA-RH7777 cells (rat-origin liver cancer cells) tumor; assay: Accumulation in c-Met expressing tumor of implanted mice, autoradiography; assay type: in vivo, nude mice (BALB/c nu/nu); details: compared with anti-c-Met antibody (SP-260) immunohistochemical staining of serial sections
Procedure: c-Met-specific accumulation of [^125I]HGF(11-83)-NH2 (73 aa) in a tumor was observed by autoradiography and immunohistostaining in mice subcutaneously implanted c-Met expressing cancer cells.
3. Observation of c-Met-Specific Accumulation of [^125I]HGF(11-83)-NH2 (73 aa) in a Tumor of Mice Subcutaneously Implanted c-Met Expressing Cancer Cells by Autoradiography and Immunohistostaining
A suspension of c-Met-expressed McA-RH7777 cells (rat-origin liver cancer cells) (200 μL, 2.0×10^6 cells) was subcutaneously injected to a right hindlimb of 6-week-old nude mice (BALB/c nu/nu: Japan SLC, Inc.). On day 9 (tumor volume: […] (McA-RH7777 cells)), the aforementioned labeled HGF-fragment (370 kBq/100 μL) was intravenously administered to each mouse. The tumor was isolated with muscles surrounding the tumor 15 minutes after administration, and frozen sections were prepared. Each frozen section was affixed to an imaging plate (Fuji Photo Film Co., Ltd) for seven days, and a [^125I]HGF(11-83)-NH2 (73 aa) accumulation image was observed by means of a bio-imaging analyzer BAS-1800 (Fuji Photo Film Co., Ltd) (FIG. 5). […] Serial frozen sections were subjected to hematoxylin-eosin (HE) staining (FIG. 6) and immunohistochemical staining with anti-c-Met antibody (SP-260) (FIG. 7).

Molecule: [99Tc].[C-]#[N+]CC(C)(C)OC.[C-]#[N+]CC(C)(C)OC.[C-]#[N+]CC(C)(C)OC.[C-]#[N+]CC(C)(C)OC.[C-]#[N+]CC(C)(C)OC.[C-]#[N+]CC(C)(C)OC [^99mTc-MIBI]
Accumulation at the infarct border zone (autoradiography) [1]: reduced accumulation | Accumulation at the infarct border zone (pinhole-SPECT) [2]: reduced accumulation

NaCl concentration at elution from heparin column [3]: about 1.5 M
Molecule: hrHGF: human recombinant HGF (PEPTIDE INSTITUTE, INC.), positive control with high heparin-binding activity [reference compound]

NaCl concentration at elution from heparin column [3]: about 1.3 M | Portion of the sample with strong heparin-binding activity ([3]; from the peak area ratios): about 80% | Area ratio of the heparin-binding peak ([3]; peak at 20.3 min, other peaks are free 125I and decomposed or denatured peptide): 78.1% | Radioactivity bound to HuCCT1 cells, hrHGF(+) samples ([4]; 0.190 nM labeled peptide with 379 nM hrHGF, room temperature, one hour, mean±SD): 20916.9±1574.2 cpm | Radioactivity bound to HuCCT1 cells, hrHGF(−) samples ([4]; 0.190 nM labeled peptide, room temperature, one hour, mean±SD): 26136.2±2580.8 cpm | Reduction of binding to the cells by addition of hrHGF ([4]; hrHGF 379 nM, 2,000-fold mole concentration, P=0.040): 20%
B1: [^125I]HGF(11-83)-NH2 (73 aa): labeled product prepared through directly introducing 125I into HGF(11-83)-NH2 (73 aa) (peptide)
peptide: FKKSAKTTLIKIDPALKIKTKKVNTADQCANRCTRNKGLPFTCKAFVFDKARKQCLWFPFNSMSSGVKKEFGH
Specificity of accumulation in tumor [5]: c-Met-specific
